In publication PMC5404317:

Biological target: HSP90, P07900
Assay: co-immunoprecipitation (V5 agarose) with western blot quantification
Details: chain shown with the change, HeLa cells, read off a plot
[1] = 10 μM CCCP for 2 h, parent: est. 0.82
[2] = untreated (no CCCP), parent: est. 1.0

response (HSP90/V5 ratio) [1] | response (HSP90/V5 ratio) [2] | Binder
0.42 | 0.54 | PINK1-V5 WT (V5-6xHis-tagged PINK1 wild type), Q9BXM7 L347P (protein) AARLQRQFVVRAWGCAGPCGRAVFLAFGLGLGLIEEKQAESRRAVSACQEIQAIFTQKSKPGPDPLDTRRLQGFRLEEYLIGQSIGKGCSAAVYEATMPTLPQNLEVTKSTGLLPGRGPGTSAPGEGQERAPGAPAFPLAIKMMWNISAGSSSEAILNTMSQELVPASRVALAGEYGAVTYRKSKRGPKQLAPHPNIIRVLRAFTSSVPLLPGALVDYPDVLPSRLHPEGLGHGRTLFLVMKNYPCTLRQYLCVNTPSPRLAAMMLLQLPEGVDHLVQQGIAHRDLKSDNILVELDPDGCPWLVIADFGCCLADESIGLQLPFSSWYVDRGGNGCLMAPEVSTARPGPRAVIDYSKADAWAVGAIAYEIFGLVNPFYGQGKAHLESRSYQEAQLPALPESVPPDVRQLVRALLQREASKRPSARVAANVLHLSLWGEHILALKNLKLDKMVGWLLQQSAATLLANRLTEKCCVETKMKMLFLANLECETLCQAALLLCSWRAAL
0.62 | 0.6 | PINK1-V5 WT (V5-6xHis-tagged PINK1 wild type), Q9BXM7 I368N (protein) AARLQRQFVVRAWGCAGPCGRAVFLAFGLGLGLIEEKQAESRRAVSACQEIQAIFTQKSKPGPDPLDTRRLQGFRLEEYLIGQSIGKGCSAAVYEATMPTLPQNLEVTKSTGLLPGRGPGTSAPGEGQERAPGAPAFPLAIKMMWNISAGSSSEAILNTMSQELVPASRVALAGEYGAVTYRKSKRGPKQLAPHPNIIRVLRAFTSSVPLLPGALVDYPDVLPSRLHPEGLGHGRTLFLVMKNYPCTLRQYLCVNTPSPRLAAMMLLQLLEGVDHLVQQGIAHRDLKSDNNLVELDPDGCPWLVIADFGCCLADESIGLQLPFSSWYVDRGGNGCLMAPEVSTARPGPRAVIDYSKADAWAVGAIAYEIFGLVNPFYGQGKAHLESRSYQEAQLPALPESVPPDVRQLVRALLQREASKRPSARVAANVLHLSLWGEHILALKNLKLDKMVGWLLQQSAATLLANRLTEKCCVETKMKMLFLANLECETLCQAALLLCSWRAAL
